Source: patent publication US7176008B2, “Process for producing activated thrombin-activatable fibrinolysis inhibitor” (Merck & Co., Inc., priority 2002, dated 2007)

Assay: Stability of TAFIa activity
Parameters: species or system human
Experimental: Pooled human plasma (30–40 mL) was diluted 10-fold with HBE buffer (10 mM HEPES, pH 7.4, 5 mM ε-aminocaproic acid). 5 mM of the reversible inhibitor ε-aminocaproic acid was added to maintain TAFIa stability during the isolation.
Thrombin, thrombomodulin and calcium chloride (final concentrations 5 nM, 2 nM and 5 mM, respectively) were added and the solution was shaken at room temperature for 30 min. The formation of serum was quenched with 10 μM FPRCK and centrifuged at 20,000×g for 30 min at 4° C. Unless otherwise mentioned, all isolation steps were performed at 4° C. The fibrin-free solution was loaded onto a heparin-sepharose column (2.5×3 cm) pre-equilibrated with HBE buffer.
In the presence of 5 mM ε-aminocaproic acid, TAFIa activity in serum reached a maximum at ˜5 min and was preserved >30 min at 37° C. Initial studies for formation of serum by simply adding thrombin and calcium only activated a limited amount of TAFI zymogen (<<0.5%) as determined with western blotting. Dilution of the plasma for serum preparation increased TAFI activation. A 4–5-fold increase in TAFI activation was observed if the plasma were diluted 10–20-fold. […] A maximal increase (30–35-fold) was obtained with 2 nM thrombomodulin, consistent with the fact that thrombomodulin is the cofactor for thrombin-mediated TAFI activation. […]

B1: TAFIa: activated thrombin-activatable fibrinolysis inhibitor, a basic carboxypeptidase purified from serum (protein)
chain: ASASYYEQYHSLNEIYSWIEFITERHPDMLTKIHIGSSFEKYPLYVLKVSGKEQAAKNAIWIDCGIHAREWISPAFCLWFIGHITQFYGIIGQYTNLLRLVDFYVMPVVNVDGYDYSWKKNRMWRKNRSFYANNHCIGTDLNRNFASKHWCEEGASSSSCSETYCGLYPESEPEVKAVASFLRRNINQIKAYISMHSYSQHIVFPYSYTRSKSKDHEELSLVASEAVRAIEKISKNTRYTHGHGSETLYLAPGGGDDWIYDLGIKYSFTIELRDTGTYGFLLPERYIKPTCREAFAAVSKIAWHVIRNV
- time TAFIa activity was maintained (4° C., ε-aminocaproic acid present during isolation): more than 3 days
- time TAFIa activity in serum was preserved (37° C., in the presence of 5 mM ε-aminocaproic acid): > 30 min
